Experiment: yeast display, Sf9 membrane polyspecificity reagent, FACS + sequencing; frameworks hold sequencing errors
How it was run: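 Nanobodies came from a synthetic yeast display library in Saccharomyces cerevisiae BJ5465, induced with galactose for 36–48 hours and stained for 1 hour at 4 °C with 10% biotinylated, detergent-solubilized Sf9 membrane reagent. Cells were enriched on streptavidin microbeads and then FACS-sorted, with low and high (top ~1%) gates set on anti-HA fluorescence for expression and streptavidin fluorescence for reagent binding. Each polyreactivity label reflects the gate a clone came from. Genes were amplified by colony PCR, sequenced by MiSeq 2 × 250 and filtered by CDR length.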

| Sequence | polyreactivity (PSR sort gate) |
| --- | --- |
| QDQLVESGGGLVQAGGSLRLSCAASGSTLRRYAMGWYRQAPGKERELVAAISGSGDSTYYADSVKGRFTISRDNAKNTVYLQMNSLKPEDTAVYYCNAVYAFNGYDYWGQGTQVTVSS | low polyreactivity |
| QDQLVESGGGLVQAGGSLRLSCAASGSTLRYYAMGWYRQAPGKERELVAAITYSAGRTSYADSVKGRFTISRDNAKNTVYLQMNSLKPEDTAVYYCATQWHSYLRRYDYWGQGTQVTVSS | low polyreactivity |
| QDQLVESGGGLVQAGGSLRLSCAASGSTLYSNTMGWYRPAPGKERELVAAICWSGASTYYADSVKGRFSISRDNAKNTVYLQMNSLKPEDTAVYYCAAGAYRNWGLYYYWGQGTQVTVSS | high polyreactivity |
| QDQLVESGGGLVQAGGSLRLSCAASGSTYYYAMGWYRQAPGKERELVAAIRSGSRTYADSVKGRFTISRDNAKNTVYLQMNSLKPEDTAVYYCAATTWRHNFYSWGQGTQVTVSS | high polyreactivity |
| QDQLVESGGGLVQAGGSLRLSCAASGYIFITKAMGLNRQAPGKERELVAAINSGGSTYYADSVKGRFTISRDNAKNTVYLQMKSLKPEDTAVYYCAAEYWVYYWHYYDYWGQGTQVTVSS | high polyreactivity |
| QDQLVESGGGLVQAGGSLRLSCAASGYTFAYYAMGWYRQAPGKERELVARITSGGRTYYADSVKGRFTISRDNAKNTVYLQMNSLKPEDTAVYYCNAAWPFRYRRYDYWGQGTQVSVSS | high polyreactivity |
| QDQLVESGGGLVQAGGSLRLSCAASRRTFSNYAMGWYRPAPGKERELVAAISGTGDNTYYADSVKVRFTISRDNANYTVYLQMNSLKPEDTAVYYCNTVYYGWPRCYGYWGQGTQVTVSS | high polyreactivity |
| QDQLVESGGGLVQAGGSLRLSCAASVSIFWSYAMGRSRQAPGKEMELVASITRSGGSTYYADSVKGRFTISRDNAKNTVYLQMNSLKPEDTAVYYCNARRTTRWGSSKYEYDYCGQGTQVTVSS | high polyreactivity |
| QDQLVESGGGLVQAGGSLRLSCAAYGYTFPWYAMGWYRQAPGKERELVAAISDTGTTNYADSVKGRFTISRDNAKNTVYLQMNSLKPEDTAVYYCNAKVTSYWYYPFNYWGQGTQVTVSS | low polyreactivity |
| QDQLVESGGGLVQAGGSLRLSFAASGSIFGVNALGWYRQAPGKERELVAAISARGGSTYYADSVKGRFTISRDNAKNTVYLQMNSQKPEDTAVYYCAATFRARPRENYWGQGTQVTVSS | high polyreactivity |
| QDQLVESGGGLVQAGGSLRLSFAASGSTFANYAMVWYRQAPGKEREWVAAISFSTVSTYYADSVKGRFTISRDNAKNTVYIQMNSLKPEDTAVYYCNTYYYGSRPSEDYWGQGTQVTVSS | high polyreactivity |
| QDQLVESGGGLVQAGGSLRLSFAASGSTFVRYAMVWYRQAPGKERELVAAISRSGGSTYYADSVKGRFTISRDNAKNTVYLQMNSLKPEDTAVYYCAARLVYSGRDRGYDYWGQGTQVTVSS | high polyreactivity |
| QDQLVESGGGLVQAGGSLRLSFAASGSTFWYNDMGWYRQAPGKERELVASISWSGGDTYYADSVKGRFTISRDNAKNSVYLQMNSLKPEDTEVYYCAKGNNWISRLMDYWGQGTQVTVSS | low polyreactivity |
| QDQLVESGGGLVQAGGSLRLSIAASVRIFYANAMGWYRQAPGQERELVAAISSGGSTYYADSVKGRFTISRDNAKNTVYLQMNSLKPEDTAVFYCAVYTHKKVRPEYDYWGQGTQVTVSS | low polyreactivity |
| QDQLVESGGGLVQAGGSLSLICAASGFNFALYAMGWYRQAPGKERELVAAINWSGGRTYYADSVKGRFTISRDNAKNTVYLQMNSLKPEDTAVYYCNRRAFSPYAANYYYWGQGTQVTVSS | high polyreactivity |
| QDQLVESGGGLVQAGGSLSLSCAASGRTFAVYAMGWYRQAPGKEMELVAAITQSGGSTYYADSVKGRFTISRDNAKNTVYLQINSMKPEDTAVYYCAKTGRFPYTAGQSFGYDYWGQGTQVTVSS | low polyreactivity |

From the nanobody polyreactivity screen of Harvey et al. (2022)
